# Laboratory results reported in patent US20030162168A1.
# Target: chimera H (HCV NS3 to NS5B-P6' fused to tTA, NS3 active site mutant S1165A, unmodified NS5A/5B junction) (Hepatitis C virus 1b (human serum isolate))
# Assay: cell-based or functional assay
substance,measurement,value
"chimera I (HCV NS3 to NS5B-P6' fused to tTA, NS5A/5B cleavage site P1-P1' mutated to R-P; source of active NS3 protease)","luciferase activity, triple transfection of chimera H, I and the pUHC13-3 reporter into 293 cells",2e+06 cps
